Measurements from paper PMC10901556, “Conservation of Affinity Rather Than Sequence Underlies a Dynamic Evolution of the Motif-Mediated p53/MDM2 Interaction in Ray-Finned Fishes” (Molecular Biology and Evolution, 2024).
Where no end group is shown, it is not given here.

How the values were obtained:
[1] = target: T1, MDM2_(D.rerio) SWIB domain (Danio rerio (zebrafish)); test: FP; conditions: modification not given
T1 chain: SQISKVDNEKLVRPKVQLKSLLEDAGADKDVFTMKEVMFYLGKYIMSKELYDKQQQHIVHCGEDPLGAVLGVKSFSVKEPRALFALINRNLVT

[2] = target: MDM2_(H.sapiens) SWIB domain (Homo sapiens (human)); test: fluorescence polarisation; displacement: complex of MDM2 (0.2-2 μM) and FITC-p53TAD_(human)^15–26 (15 nM) displaced by increasing unlabeled p53TAD peptide or p53TAD^full-length; KD calculated from IC50 (Nikolovska-Coleska et al. 2004); 20 mM sodium phosphate pH 7.4, 150 mM NaCl, 1 mM TCEP
[3] = target: MDM2 SWIB domain from Anguilla anguilla (European eel) (Anguilla anguilla (European eel)); test: as above
[4] = target: MDM2 SWIB domain from Clupea harengus (Atlantic herring) (Clupea harengus (Atlantic herring)); test: as above
[5] = target: MDM2 SWIB domain from Oncorhynchus kisutch (coho salmon) (Oncorhynchus kisutch (coho salmon)); test: as above
[6] = target: MDM2 SWIB domain from Lepisosteus oculatus (spotted gar) (Lepisosteus oculatus (spotted gar)); test: as above
[7] = target: MDM2 SWIB domain from Channa argus (Channa argus); test: as above
[8] = target: MDM2 SWIB domain from Maylandia zebra (Maylandia zebra); test: as above
[9] = target: MDM2 SWIB domain from Takifugu rubripes (Japanese puffer) (Takifugu rubripes (Japanese puffer)); test: as above

QNDSQEFAELWEKNLISIQPPGGGSCWDIINDEEYLPGSFDPN [p53TAD_(D.rerio)^12-55]
Kd [1]: 33 nM

Ac-SQESFQELWKMMC [Anguilla anguilla (European eel) p53TADP1 p53TAD^15–27]
Kd [2]: 13 nM | Kd [3]: 190 nM

PGSFDPNFFENVLEE [p53TAD_(D.rerio)^49-63]
Kd [1]: 210000 nM

Ac-SQGTFDEIWASNF [Clupea harengus (Atlantic herring) p53TADP1 p53TAD^15–27]
Kd [2]: 1250 nM | Kd [4]: 2600 nM

Ac-GQCSFQQLWESNM [Oncorhynchus kisutch (coho salmon) p53TADP1a p53TAD^15–27]
Kd [5]: 2100 nM | Kd [2]: 3150 nM

Ac-SQESFEDLWKMNL [Oncorhynchus kisutch p53TADP2 p53TAD^15–27]
Kd [5]: 1160 nM | Kd [2]: 790 nM

Ac-SQESFQELWNMVI [Lepisosteus oculatus (spotted gar) p53TAD^15–27]
Kd [2]: 121 nM | Kd [6]: 390 nM

ELWEKNLISIQPPGG [p53TAD_(D.rerio)^21-35]
Kd [1]: > 200000 nM

Ac-SQEFAELWEKNL [Danio rerio (zebrafish) p53TADP2 p53TAD^15–27]
Kd [2]: 4330 nM

Ac-SQDSFRELWESVV [Channa argus p53TADP1 p53TAD^15–27]
Kd [2]: 1100 nM | Kd [7]: 3300 nM

DSQEFAELWEKN [p53TAD_(D.rerio)^14-26]
Kd [1]: > 200000 nM

Ac-SQGSFQQLWETNM [Oncorhynchus kisutch p53TADP1b p53TAD^15–27]
Kd [5]: 3500 nM | Kd [2]: 5150 nM

GGSCWDIINDEEYLP [p53TAD_(D.rerio)^35-49]
Kd [1]: > 200000 nM

IQPPGGGSCWDIIND [p53TAD_(D.rerio)^30-44]
Kd [1]: > 200000 nM

Ac-SQDETFQALWNTVT [Anguilla anguilla p53TADP2 p53TAD^15–27]
Kd [2]: 770 nM | Kd [3]: 1200 nM

Ac-SQDSFKELWDQLP [Maylandia zebra p53TADP1 p53TAD^15–27]
Kd [2]: 270 nM | Kd [8]: 1600 nM

Ac-SQDTFQDLWENVA [Takifugu rubripes (Japanese puffer) p53TADP1 p53TAD^15–27]
Kd [2]: 1700 nM | Kd [9]: 4500 nM

IINDEEYLPGSFDPN [p53TAD_(D.rerio)^41-55]
Kd [1]: > 200000 nM
